Where no end group is shown, it is not given here. Cy5.5 maleimide = Cy5.5 label attached to cysteine thiol by maleimide-activated reaction
What was measured:
[1] = biological target: T1, TRPV6 (Homo sapiens, UniProt Q9H1D0); test: Equilibrium dissociation constant (Kd) in an LNCaP model; assay type: binding; design: endogenous in cells; host or cells: LNCaP
T1 sequence (Q9H1D0 1-765): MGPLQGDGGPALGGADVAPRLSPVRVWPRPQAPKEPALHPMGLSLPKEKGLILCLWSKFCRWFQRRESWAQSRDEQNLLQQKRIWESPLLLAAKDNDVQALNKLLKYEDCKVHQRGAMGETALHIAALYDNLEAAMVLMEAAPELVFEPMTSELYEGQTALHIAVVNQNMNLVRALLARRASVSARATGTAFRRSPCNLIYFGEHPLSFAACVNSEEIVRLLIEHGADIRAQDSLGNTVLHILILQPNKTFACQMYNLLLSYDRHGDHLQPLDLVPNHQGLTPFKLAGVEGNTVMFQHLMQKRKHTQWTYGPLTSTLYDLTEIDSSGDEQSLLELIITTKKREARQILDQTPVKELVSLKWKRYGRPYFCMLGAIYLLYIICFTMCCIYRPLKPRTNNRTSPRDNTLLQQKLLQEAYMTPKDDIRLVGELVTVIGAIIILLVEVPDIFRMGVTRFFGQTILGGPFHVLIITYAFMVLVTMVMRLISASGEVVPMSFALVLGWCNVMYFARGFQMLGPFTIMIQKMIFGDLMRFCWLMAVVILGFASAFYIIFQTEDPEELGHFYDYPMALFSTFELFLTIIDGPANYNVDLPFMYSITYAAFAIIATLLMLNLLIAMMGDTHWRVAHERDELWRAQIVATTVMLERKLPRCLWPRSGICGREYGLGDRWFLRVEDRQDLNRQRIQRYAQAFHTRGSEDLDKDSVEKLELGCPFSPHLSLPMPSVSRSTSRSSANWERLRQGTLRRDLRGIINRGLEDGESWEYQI
Description: As noted above, a TRPV6-binding peptide of the invention will have calcium channel binding activity. The peptides having such activity are readily identified with any known assays suitable for measuring binding of the peptides with TRPV6. For example, in one embodiment, a peptide having calcium channel inhibition activity is optionally identified by determining that the peptide reduces calcium channel activity by reducing (i.e., partially or fully inhibiting) the flow of calcium through calcium channels. TRPV6-binding activity can also be measured using methods such as: internalized calcifluors (such as FURA-2 am); whole cell patch clamping to measure inhibition calcium currents electrophysiologically; equilibrium binding assays using peptides labeled with detectable tags such as radioactive or fluorescent tags; and/or NMR determination of ‘bound’ and ‘unbound’ peptides. In some embodiments, the TRPV6-binding peptides also have i) calcium channel blocking and ii) lack of paralytic activity.
Calcium channel binding activity is optionally identified by using a readily available cell line (e.g. human embryonic kidney cell lines-HEK293) transfected with an expression vector for TRPV6. Such transfected cells are readily aliquoted and stored (typically −80° C.) until required. […]

[2] = Tissue distribution of Cy5.5-labeled peptides after i.v. injection, optical imaging; assay type: in vivo, CD1 mice
Description: SorC13 and SorC27 were labeled with the near-infrared probe, Cy5.5. SorC13 was labeled at lysine-1 and lysine-8 with the infrared fluorescent probe cy5.5 through reaction with Cy5.5 NHS ester-activated process. SorC27 was labeled at the single cysteine thiol with Cy5.5 maleimide-activated reaction. The labeled peptides were purified with a combination of size exclusion chromatography and HPLC. The label, Cy5.5, fluoresces in the infra-red region after excitation with a scanning laser. The low energy laser is able to penetrate the animal to about 1 cm and, thus, by scanning prone and supine positions, the presence of the tagged peptides can be quantified in three dimensions.
Cy5.5-labeled peptides were intravenously injected into CD1 mice (4 for each compound) at 100 μg per animal in 100 μL, and animals were imaged live using an optical imaging system, Optix explorer (GE Healthcare Systems) at different time points (30 min, 90 min, 4 h). […] The bio-distribution of the labeled peptides in different organs and tissues were visualized and relatively quantified by optical imaging analysis. This protocol allows for visualization of the location of the labeled peptides and how the location changes over time. […] Nodes that accumulated the labeled peptides are indicated by line 1 (superfacial cervical nodes), line 4 (axillary nodes), line 5 (brachial nodes), line 8 (mesenteric nodes) and line 9 (inguinal nodes). FIGS. 2, 3 and 4 show the amounts of labeled peptides in various organs ex vivo.

[3] = tested on: TRPV6-rich ovarian (SKOV-3 cells) tumors; test: Localization of SorC27-cy5.5 to xenografted ovarian tumors in vivo (optical imaging); design: species or system nude CD1 mice; conditions: 100 μg intraperitoneally, SKOV-3 ovarian xenograft
Procedure: (§1) Mice xenografted with a TRPV6-rich ovarian (SKOV-3 cells) and prostate (DU145 cells) tumors were injected (intraperitoneally) with the fluorescently-labeled TRPV6-binding peptide SorC27-cy5.5. SorC27 was labeled with the near-infrared probe Cy5.5 at the single cysteine thiol using a Cy5.5 maleimide-activated reaction. The labeled peptides were purified with a combination of size exclusion chromatography and HPLC. Cy5.5, fluoresces in the infra-red region after excitation with a scanning laser. The low energy laser is able to penetrate the animal to about 1 cm and, thus, by scanning, the presence of the tagged peptides can be quantified in three dimensions. Cy5.5-labeled peptides were intraperitoneally injected into nude CD1 mice at 100 μg per animal, and animals were imaged live using an optical imaging system, Optix explorer (GE Healthcare Systems) at different time points (30 min, 90 min, 4 h).

[4] = tested on: ovarian TRPV6-rich tumor (SKOV-3 cells); test: SorC27-cy5.5 in mice xenografted with SKOV-3 tumor (Example 9); assay type: in vivo; conditions: SKOV-3 xenograft
Procedure: Mice xenografted with an ovarian TRPV6-rich tumor (SKOV-3 cells) are injected with the fluorescently-labeled TRPV6-binding peptide SorC27-cy5.5.

[5] = biological target: T1, TRPV6; test: Co-localization of SorC27-cy5.5 and fluorescently labeled TRPV6 antibodies in cancer cell lines; assay type: cell-based; design: endogenous in cells; host or cells: PC-3, T 47D, SKOV-3
Description: The level of TRPV6 immunofluorescence and SorC27-cy5.5 fluorescence are both increased in the transfected cells with increased TRPV6 expression shown in the B1-B3 series of FIG. 7 compared to the cells in the A1-A3 series of FIG. 7.
The level of TRPV6 immunofluorescence and SorC27-cy5.5 fluorescence are both increased in the transfected cells with greater TRPV6 expression shown in the B1-B3 series of FIG. 8 compared to the cells in the A1-A3 series of FIG. 8.
The level of TRPV6 immunofluorescence and SorC27-cy5.5 fluorescence are both increased the transfected cells with greater TRPV6 expression shown in the B1-B3 series of FIG. 9 compared to the cells in A1-A3 series of FIG. 9.

[6] = biological target: T1, TRPV6; test: Co-localization with TRPV6 antibody in HEK-293 cells transfected with a TRPV6 expression vector; assay type: cell-based
Procedure: HEK-293 cells were transfected with a TRPV6 expression vector and incubated with fluorescently labeled antibodies to the N-terminal peptides of TRPV6 as well as fluorescently labeled SorC27 (SorC27-cy5.5). HEK-293 cells that were not transfected with a TRPV6 expression vector were also incubated with fluorescently labeled anti-TRPV6 and SorC27-cy5.5 as a negative control (FIG. 6A).

[7] = tested on: prostate (DU145 cells) tumors; test: Localization of SorC27-cy5.5 to xenografted prostate tumors in vivo (optical imaging); design: species or system nude CD1 mice; conditions: 100 μg intraperitoneally, DU145 prostate xenograft
Procedure: as §1

[8] = biological target: T1, TRPV6; test: Fluorescently tagged peptide on staged tumor tissue micro-arrays (Example 7); design: from tissue; host or cells: ovarian cancer tumour sections on tissue micro-arrays; conditions: Stage I to Stage IV tissue micro-arrays
Procedure: Fluorescently tagged TRPV6-binding peptides are useful to determine the stage of a tumor by direct incubation of Tissue Micro-Arrays (TMA) with the peptide reagent. SorC27-cy5.5 compound is incubated with cells from a subject and fluorescence levels are compared to levels from control staged tumor samples.

Row | Substance | Kd [1] [nM] | predominant tissue localization ([2]; 100 μg i.v., CD1 mice, imaging up to 4 h) | detectability in tissues after perfusion ([2]; 24 hours, after perfusion to remove blood and lymph) | accumulation in lymph nodes (superfacial cervical, axillary, branchial, mesenteric, inguinal) ([2]; four hours after i.v. injection of 100 μg) | time tumor is clearly detected in vivo after injection [3] | detection of xenografted tumor by fluorescence [4] | SorC27-cy5.5 fluorescence in TRPV6-transfected versus non-transfected cells ([5]; PC-3) | SorC27-cy5.5 fluorescence in TRPV6-transfected versus non-transfected cells ([5]; SKOV-3) | SorC27-cy5.5 fluorescence in TRPV6-transfected versus non-transfected cells ([5]; T 47D) | co-localization with TRPV6 antibody ([5]; breast cancer cell line T 47D) | co-localization with TRPV6 antibody ([5]; ovarian cancer cell line SKOV-3) | co-localization with TRPV6 antibody ([5]; prostate cancer cell line PC-3) | fluorescence in non-transfected cells (negative control) ([6]; HEK293 cells not transfected with the TRPV6 expression vector) | binding to TRPV6 (co-localization with anti-TRPV6) ([6]; HEK-293 cells transfected with TRPV6 expression vector) | time tumor is clearly detected in vivo after injection [7] | fluorescent signal with tumor stage [8]
1 | HPSKVDLPR [SorC9, HPSKVDLPR] | ~90 |  |  |  |  |  |  |  |  |  |  |  |  |  |  | 
2 | SorC27-cy5.5: SorC27 labeled at the single cysteine thiol with Cy5.5 maleimide-activated reaction (EGKLSSNDTEGGLC(Cy5.5 maleimide)KEFLHPSKVDLPR) |  | localize predominantly in lymph nodes, lung, liver and kidney | still detectable in these tissues | Significant accumulation | at least 24 hours | detected in vivo | increased | increased | increased | co-localization of SorC27-cy5.5 and TRPV6 | co-localization of SorC27-cy5.5 and TRPV6 | co-localization of SorC27-cy5.5 and TRPV6 | no fluorescence | bound to TRPV6 | at least 24 hours | increase in the intensity of the fluorescent signal

Source: patent US12458618B2, “Compounds and methods for the detection of TRPV-6 cancers and drug delivery” (Soricimed Biopharma Inc., priority 2009, dated 2025)
